Values joined by “and” are separate entries in the source; they are usually repeats but may differ in a detail not shown here. Identical values can stand only once.
Target: T1, Vma22p (S. cerevisiae, UniProt P38784 1-181)
T1 sequence (looked up): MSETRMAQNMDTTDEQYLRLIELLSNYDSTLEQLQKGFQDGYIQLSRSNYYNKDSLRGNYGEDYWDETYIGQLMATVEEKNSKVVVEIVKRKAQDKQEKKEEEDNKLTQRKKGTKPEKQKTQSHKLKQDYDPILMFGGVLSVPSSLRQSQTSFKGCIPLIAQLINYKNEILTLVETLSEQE
Assay: cross-linking

B1: Vph1p, the 100-kD integral membrane subunit of the V-ATPase (natural protein, S. cerevisiae, UniProt P32563 1-840, looked up)
chain: MAEKEEAIFRSAEMALVQFYIPQEISRDSAYTLGQLGLVQFRDLNSKVRAFQRTFVNEIRRLDNVERQYRYFYSLLKKHDIKLYEGDTDKYLDGSGELYVPPSGSVIDDYVRNASYLEERLIQMEDATDQIEVQKNDLEQYRFILQSGDEFFLKGDNTDSTSYMDEDMIDANGENIAAAIGASVNYVTGVIARDKVATLEQILWRVLRGNLFFKTVEIEQPVYDVKTREYKHKNAFIVFSHGDLIIKRIRKIAESLDANLYDVDSSNEGRSQQLAKVNKNLSDLYTVLKTTSTTLESELYAIAKELDSWFQDVTREKAIFEILNKSNYDTNRKILIAEGWIPRDELATLQARLGEMIARLGIDVPSIIQVLDTNHTPPTFHRTNKFTAGFQSICDCYGIAQYREINAGLPTIVTFPFMFAIMFGDMGHGFLMTLAALSLVLNEKKINKMKRGEIFDMAFTGRYIILLMGVFSMYTGFLYNDIFSKTMTIFKSGWKWPDHWKKGESITATSVGTYPIGLDWAWHGTENALLFSNSYKMKLSILMGFIHMTYSYFFSLANHLYFNSMIDIIGNFIPGLLFMQGIFGYLSVCIVYKWAVDWVKDGKPAPGLLNMLINMFLSPGTIDDELYPHQAKVQVFLLLMALVCIPWLLLVKPLHFKFTHKKKSHEPLPSTEADASSEDLEAQQLISAMDADDAEEEEVGSGSHGEDFGDIMIHQVIHTIEFCLNCVSHTASYLRLWALSLAHAQLSSVLWTMTIQIAFGFRGFVGVFMTVALFAMWFALTCAVLVLMEGTSAMLHSLRLHWVESMSKFFVGEGLPYEPFAFEYKDMEVAVASASSSASS
With B1 the “half-life of the interaction in cells (pulse-chase, cross-linkable Vph1p)” value was < 5 min and ~5 min.

Reference: article PMC2133036 (The Journal of Cell Biology, 1998)
